# Source: patent publication US20150299281A1 (ZEALAND PHARMA A S, published 2015)
# Square brackets hold non-standard residues; d marks the D form. Aib = CC(C)(N)C(=O)O
# T1: human GIP receptor (human, UniProt P48546 22-466)
# T1 sequence (looked up): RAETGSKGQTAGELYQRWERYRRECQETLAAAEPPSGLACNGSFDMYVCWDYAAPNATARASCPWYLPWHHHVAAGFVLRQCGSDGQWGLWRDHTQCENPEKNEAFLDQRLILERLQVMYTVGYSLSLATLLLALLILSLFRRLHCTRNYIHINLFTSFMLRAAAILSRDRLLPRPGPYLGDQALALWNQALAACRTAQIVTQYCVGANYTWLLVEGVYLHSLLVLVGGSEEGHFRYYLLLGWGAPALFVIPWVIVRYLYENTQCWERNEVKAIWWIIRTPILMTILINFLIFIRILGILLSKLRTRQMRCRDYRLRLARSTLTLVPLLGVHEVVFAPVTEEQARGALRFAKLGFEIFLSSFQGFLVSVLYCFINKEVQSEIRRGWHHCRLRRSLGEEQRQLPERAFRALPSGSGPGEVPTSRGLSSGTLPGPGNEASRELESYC
# Tests used:
# [1] = molecular target: T1, human GIP receptor; test: cell-based or functional assay
# [2] = molecular target: human GLP-1 receptor (human, UniProt P43220 24-463); test: cell-based or functional assay
Binder,"EC50, cAMP induction in HEK293 cells expressing human GIP R [1]","EC50, cAMP induction in HEK293 cells expressing human GLP-1 R [2]"
H-Y[Aib]EGTFTSDYSIYLEKKAQKEFVEWLLSA-NH2 (SMILES CC[C@H](C)[C@H](NC(=O)[C@H](CO)NC(=O)[C@H](Cc1ccc(O)cc1)NC(=O)[C@H](CC(=O)O)NC(=O)[C@H](CO)NC(=O)[C@@H](NC(=O)[C@H](Cc1ccccc1)NC(=O)[C@@H](NC(=O)CNC(=O)[C@H](CCC(=O)O)NC(=O)C(C)(C)NC(=O)[C@@H](N)Cc1ccc(O)cc1)[C@@H](C)O)[C@@H](C)O)C(=O)N[C@@H](Cc1ccc(O)cc1)C(=O)N[C@@H](CC(C)C)C(=O)N[C@@H](CCC(=O)O)C(=O)N[C@@H](CCCCN)C(=O)N[C@@H](CCCCN)C(=O)N[C@@H](C)C(=O)N[C@@H](CCC(N)=O)C(=O)N[C@@H](CCCCN)C(=O)N[C@@H](CCC(=O)O)C(=O)N[C@@H](Cc1ccccc1)C(=O)N[C@H](C(=O)N[C@@H](CCC(=O)O)C(=O)N[C@@H](Cc1c[nH]c2ccccc12)C(=O)N[C@@H](CC(C)C)C(=O)N[C@@H](CC(C)C)C(=O)N[C@@H](CO)C(=O)N[C@@H](C)C(N)=O)C(C)C) [Compound 39],0.0083 nM,0.011 nM
H-Y[Aib]EGTFTSDYSIYLESKAAHDFVEWLLSA-NH2 (SMILES CC[C@H](C)[C@H](NC(=O)[C@H](CO)NC(=O)[C@H](Cc1ccc(O)cc1)NC(=O)[C@H](CC(=O)O)NC(=O)[C@H](CO)NC(=O)[C@@H](NC(=O)[C@H](Cc1ccccc1)NC(=O)[C@@H](NC(=O)CNC(=O)[C@H](CCC(=O)O)NC(=O)C(C)(C)NC(=O)[C@@H](N)Cc1ccc(O)cc1)[C@@H](C)O)[C@@H](C)O)C(=O)N[C@@H](Cc1ccc(O)cc1)C(=O)N[C@@H](CC(C)C)C(=O)N[C@@H](CCC(=O)O)C(=O)N[C@@H](CO)C(=O)N[C@@H](CCCCN)C(=O)N[C@@H](C)C(=O)N[C@@H](C)C(=O)N[C@@H](Cc1c[nH]cn1)C(=O)N[C@@H](CC(=O)O)C(=O)N[C@@H](Cc1ccccc1)C(=O)N[C@H](C(=O)N[C@@H](CCC(=O)O)C(=O)N[C@@H](Cc1c[nH]c2ccccc12)C(=O)N[C@@H](CC(C)C)C(=O)N[C@@H](CC(C)C)C(=O)N[C@@H](CO)C(=O)N[C@@H](C)C(N)=O)C(C)C) [Compound 41],0.013 nM,0.011 nM
H-Y[Aib]EGTFTSDYSIYLDEKAAKDFVEWLLSA-NH2 (SMILES CC[C@H](C)[C@H](NC(=O)[C@H](CO)NC(=O)[C@H](Cc1ccc(O)cc1)NC(=O)[C@H](CC(=O)O)NC(=O)[C@H](CO)NC(=O)[C@@H](NC(=O)[C@H](Cc1ccccc1)NC(=O)[C@@H](NC(=O)CNC(=O)[C@H](CCC(=O)O)NC(=O)C(C)(C)NC(=O)[C@@H](N)Cc1ccc(O)cc1)[C@@H](C)O)[C@@H](C)O)C(=O)N[C@@H](Cc1ccc(O)cc1)C(=O)N[C@@H](CC(C)C)C(=O)N[C@@H](CC(=O)O)C(=O)N[C@@H](CCC(=O)O)C(=O)N[C@@H](CCCCN)C(=O)N[C@@H](C)C(=O)N[C@@H](C)C(=O)N[C@@H](CCCCN)C(=O)N[C@@H](CC(=O)O)C(=O)N[C@@H](Cc1ccccc1)C(=O)N[C@H](C(=O)N[C@@H](CCC(=O)O)C(=O)N[C@@H](Cc1c[nH]c2ccccc12)C(=O)N[C@@H](CC(C)C)C(=O)N[C@@H](CC(C)C)C(=O)N[C@@H](CO)C(=O)N[C@@H](C)C(N)=O)C(C)C) [Compound 40],0.011 nM,0.022 nM
